Positions count from the first letter of the chain named.
Experiments:
human CD37 = biological target: T1, human CD37 (human, UniProt P11049 1-278); assay: flow cytometry titration on BJAB cells; apparent Kd
T1 construct: Tetraspanin antigen; Expressed on 300-19 cells transfected with pSRa-CD37 (entire CDS) or endogenous on WSU-DLCL-2, BJAB and Ramos lymphoma cells; also called CD37 antigen; human CD37 wildtype
T1 sequence: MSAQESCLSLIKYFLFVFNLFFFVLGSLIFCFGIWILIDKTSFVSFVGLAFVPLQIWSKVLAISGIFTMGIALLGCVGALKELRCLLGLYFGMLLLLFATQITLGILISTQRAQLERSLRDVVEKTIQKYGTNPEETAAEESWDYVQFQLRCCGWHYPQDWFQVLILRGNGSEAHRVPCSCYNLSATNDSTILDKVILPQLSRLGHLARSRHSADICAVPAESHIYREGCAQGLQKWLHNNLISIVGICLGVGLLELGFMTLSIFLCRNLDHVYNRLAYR
Summary of the method: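 BJAB cells were incubated 3 h with titrated antibody in RPMI-1640 containing 2% goat serum, then 1 h with FITC anti-mouse or anti-human IgG, fixed in 1% formaldehyde and read by flow cytometry. Apparent Kd was derived by non-linear regression of the dose-response curves.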

hCD37-M1 = biological target: T2, hCD37-M1 (human/murine chimera, UniProt P11049 1-281); assay: flow cytometry, 300-19 cells expressing hCD37-M1, 1.5 µg/mL antibody
T2 construct: stably expressed on 300-19 cells; also called hCD37-M1 variant
T2 chain: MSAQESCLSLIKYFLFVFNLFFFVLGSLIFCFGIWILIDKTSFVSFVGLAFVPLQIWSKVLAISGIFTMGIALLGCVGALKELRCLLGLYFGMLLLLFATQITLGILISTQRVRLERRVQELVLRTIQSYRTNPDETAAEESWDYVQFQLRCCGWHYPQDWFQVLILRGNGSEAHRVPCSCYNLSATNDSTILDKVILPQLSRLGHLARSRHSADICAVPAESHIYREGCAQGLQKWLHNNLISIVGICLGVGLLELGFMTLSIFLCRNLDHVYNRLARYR
Description: (§1) Binding specificity was tested by flow cytometry using purified antibodies. […] All murine antibodies were incubated for 3 h with either CD37-expressing 300-19 cells or the non-transfected 300-19 cells (1×10⁵ cells per sample) in 100 μL FACS buffer (RPMI-1640 medium supplemented with 2% normal goat serum). Then, the cells were pelleted, washed, and incubated for 1 h with 100 μL of FITC-conjugated goat anti-mouse IgG-antibody (Jackson Laboratory, 6 μg/mL in FACS buffer). The cells were pelleted again, washed with FACS buffer and resuspended in 200 μL of PBS containing 1% formaldehyde. Samples were acquired using a FACSCalibur flow cytometer with the HTS multiwell sampler or a FACS array flow cytometer and analyzed using CellQuest Pro (all from BD Biosciences, San Diego, US).
(§2) Binding of various CD37 antibodies to cells expressing human CD37 wildtype and variants was analyzed by flow cytometry using 1.5 μg/mL of each antibody. The isolated antibodies of this invention were compared to commercially available CD37 antibody WR17, as well as the TRU-016 SMIP. […] Likewise, all antibodies tested bound the hCD37-M3 variant (FIG. 18B). In contrast, the isolated antibodies of this invention bound the hCD37-M1 variant, while TRU-016 and WR17 were unable to bind hCD37-M1 variant (FIG. 19A). The CD37-50 and CD37-51 antibodies and TRU-016 were also able to bind the hCD37-M45 variant. […] In contrast, the CD37-3, CD37-12, CD37-38, CD37-56 and CD37-57 antibodies require at least one of the AA residues in the hCD37-M45 variant that were changed to the corresponding murine AA residues for binding to the CD37 antigen.

hCD37-M3 = biological target: T3, hCD37-M3 (human/murine chimera, UniProt P11049 1-281); assay: flow cytometry, 300-19 cells expressing hCD37-M3, 1.5 µg/mL antibody
T3 construct: stably expressed on 300-19 cells; also called hCD37-M3 variant
T3 chain: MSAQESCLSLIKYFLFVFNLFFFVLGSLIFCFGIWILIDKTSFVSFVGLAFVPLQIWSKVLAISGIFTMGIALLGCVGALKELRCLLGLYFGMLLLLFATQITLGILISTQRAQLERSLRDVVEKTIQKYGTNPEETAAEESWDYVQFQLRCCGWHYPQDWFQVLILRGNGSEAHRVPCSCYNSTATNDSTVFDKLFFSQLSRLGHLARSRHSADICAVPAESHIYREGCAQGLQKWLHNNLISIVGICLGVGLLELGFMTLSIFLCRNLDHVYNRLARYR
Description: as §1, §2

hCD37-M45 = biological target: T4, hCD37-M45 (human/murine chimera, UniProt P11049 1-281); assay: flow cytometry, 300-19 cells expressing hCD37-M45, 1.5 µg/mL antibody
T4 construct: stably expressed on 300-19 cells; also called hCD37-M45 variant
T4 chain: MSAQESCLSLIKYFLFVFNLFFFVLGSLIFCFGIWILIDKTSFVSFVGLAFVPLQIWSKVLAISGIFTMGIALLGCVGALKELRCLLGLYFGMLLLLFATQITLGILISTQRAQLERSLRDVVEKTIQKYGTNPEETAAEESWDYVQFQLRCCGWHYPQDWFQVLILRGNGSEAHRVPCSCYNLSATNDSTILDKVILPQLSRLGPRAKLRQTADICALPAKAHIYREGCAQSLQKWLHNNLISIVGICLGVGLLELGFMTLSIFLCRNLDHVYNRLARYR
Description: as §1
Binding of various CD37 antibodies to cells expressing human CD37 wildtype and variants was analyzed by flow cytometry using 1.5 μg/mL of each antibody. The isolated antibodies of this invention were compared to commercially available CD37 antibody WR17, as well as the TRU-016 SMIP. […] Likewise, all antibodies tested bound the hCD37-M3 variant (FIG. 18B). In contrast, the isolated antibodies of this invention bound the hCD37-M1 variant, while TRU-016 and WR17 were unable to bind hCD37-M1 variant (FIG. 19A). The CD37-50 and CD37-51 antibodies and TRU-016 were also able to bind the hCD37-M45 variant. […]

macaque CD37 = biological target: T5, macaque CD37 (macaque, UniProt P11049 1-277 (human entry)); assay: flow cytometry, 300-19/CD37mac cells
T5 construct: Expressed on 300-19 cells transfected with pSRa-CD37mac (300-19/CD37mac cells); also called macaca CD37; macaque derived CD37 antigen
T5 chain: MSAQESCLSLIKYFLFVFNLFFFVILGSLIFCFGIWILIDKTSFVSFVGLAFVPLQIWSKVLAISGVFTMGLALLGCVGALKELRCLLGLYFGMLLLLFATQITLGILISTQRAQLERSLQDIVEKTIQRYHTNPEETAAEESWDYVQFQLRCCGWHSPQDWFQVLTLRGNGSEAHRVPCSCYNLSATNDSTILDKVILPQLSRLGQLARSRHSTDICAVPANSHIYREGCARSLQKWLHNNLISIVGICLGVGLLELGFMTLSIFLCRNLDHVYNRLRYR
Description: as §1
The murine antibodies muCD37-3, muCD37-12, muCD37-38, […], muCD37-51, muCD37-56 and muCD37-57 were assayed for their ability to bind to 300-19/CD37mac cells expressing macaque CD37. Flow cytometry binding assays were carried out using secondary FITC-conjugated goat-anti-murine or goat-anti-human antibodies, analyzed as described in Example 2. Binding was compared to the previously described anti-CD37 antibody WR17 and the anti-CD37 SMIP TRU-016. […] In contrast, muCD37-3, muCD37-12, the previously described anti-CD37 antibody WR17 and the anti-CD37 SMIP TRU-016 are unable to bind the macaque derived CD37 antigen.

B1: muCD37-50 (antibody, mouse IgG2a, kappa, V domains shown)
VH: DVQLQESGPDLLKPSQSLSLTCTVTGYSITSGFAWHWIRQFPGNKLEWMGYILYSGSTVYSPSLKSRISITRDTSKNHFFLQLNSVTTEDTATYYCARGYYGYGAWFAYWGQGTLVTVSA
VL: QIVLTQSPAIMSASPGEKVTMTCSATSSVTYMHWYQQKSGTSPKRWIYDTSKLPYGVPGRFSGSGSGTSYSLTISSMEAEDAATYYCQQWSDNPPTFGSGTKLEIKR
notes: Murine hybridoma antibody
- Kd (human CD37): 0.6 nM
- binding result (hCD37-M1): binds
- binding result (hCD37-M3): binds
- binding result (hCD37-M45): binds

B2: muCD37-51 (antibody, mouse IgG2a, kappa, V domains shown)
VH: B1 VH with T30S, L53H, V59N, T74S, H78Q, Y103F, A108V
VL: B1 VL with P54A, Y55S, G59A, S76N, D92S
notes: Murine hybridoma antibody
- binding result (macaque CD37): binds
- Kd (human CD37): 0.6 nM
- binding result (hCD37-M1): binds
- binding result (hCD37-M3): binds
- binding result (hCD37-M45): binds
